Source: PMC3074120 (Nucleic Acids Research, 2010)

B1: NHA-Δ12 (GW182 fragment Δ12, amino acids 896-1219) (domain or fragment)
chain: FTWGNNINPNNSSGWDESSKPTPSQGWGDPPKSNQSLGWGDSSKPVSSPDWNKQQDIVGSWGIPPATGKPPGTGWLGGPIPAPAKEEEPTGWEEPSPESIRRKMEIDDGTSAWGDPSKYNYKNVNMWNKNVPNGNSRSDQQAQVHQLLTPASAISNKEASSGSGWGEPWGEPSTPATTVDNGTSAWGKPIDSGPSWGEPIAAASSTSTWGSSSVGPQALSKSGPKSMQDGWCGDDMPLPGNRPTGWEEEEDVEIGMWNSNSSQELNSSLNWPPYTKKMSSKGLSGKKRRRERGMMKGGNKQEEAWINPFVKQFSNISFSRDSPE
B2: NHA-Δ5 (GW182 fragment Δ5, amino acids 1670-1962) (domain or fragment)
chain: TSAWSSIRASNYNVPLSSTAQSTSARNSDSKLTWSPGSVTNTSLAHELWKVPLPPKNITAPSRPPPGLTGQKPPLSTWDNSPLRIGGGWGNSDARYTPGSSWGESSSGRITNWLVLKNLTPQIDGSTLRTLCMQHGPLITFHLNLPHGNALVRYSSKEEVVKAQKSLHMCVLGNTTILAEFASEEEISRFFAQSQSLTPSPGWQSLGSSQSRLGSLDCSHSFSSRTDLNHWNGAGLSGTNCGDLHGTSLWGTPHYSTSLWGPPSSSDPRGISSPSPINAFLSVDHLGGGGESM
B3: NHA-Δ10 (GW182 fragment Δ10, amino acids 655-1343) (domain or fragment)
chain: QTNEQSSVWAKTGGTVESDGSTESTGRLEEKGTGESQSRDRRKIDQHTLLQSIVNRTDLDPRVLSNSGWGQTPIKQNTAWDTETSPRGERKTDNGTEAWGSSATQTFNSGACIDKTSPNGNDTSSVSGWGDPKPALRWGDSKGSNCQGGWEDDSAATGMVKSNQWGNCKEEKAAWNDSQKNKQGWGDGQKSSQGWSVSASDNWGETSRNNHWGEANKKSSSGGSDSDRSVSGWNELGKTSSFTWGNNINPNNSSGWDESSKPTPSQGWGDPPKSNQSLGWGDSSKPVSSPDWNKQQDIVGSWGIPPATGKPPGTGWLGGPIPAPAKEEEPTGWEEPSPESIRRKMEIDDGTSAWGDPSKYNYKNVNMWNKNVPNGNSRSDQQAQVHQLLTPASAISNKEASSGSGWGEPWGEPSTPATTVDNGTSAWGKPIDSGPSWGEPIAAASSTSTWGSSSVGPQALSKSGPKSMQDGWCGDDMPLPGNRPTGWEEEEDVEIGMWNSNSSQELNSSLNWPPYTKKMSSKGLSGKKRRRERGMMKGGNKQEEAWINPFVKQFSNISFSRDSPEENVQSNKMDLSGGMLQDKRMEIDKHSLNIGDYNRTVGKGPGSRPQISKESSMERNPYFDKDGIVADESQNMQFMSSQSMKLPPSNSALPNQALGSIAGLGMQNLNSVRQNGNPSMFGVGNTAAQ
B4: NHA-Δ12a (GW182 fragment Δ12a, amino acids 896-1045) (domain or fragment)
chain: FTWGNNINPNNSSGWDESSKPTPSQGWGDPPKSNQSLGWGDSSKPVSSPDWNKQQDIVGSWGIPPATGKPPGTGWLGGPIPAPAKEEEPTGWEEPSPESIRRKMEIDDGTSAWGDPSKYNYKNVNMWNKNVPNGNSRSDQQAQVHQLLTP

molecular target: GST-PIWI (PIWI domain of Ago2) (human, UniProt Q9UKV8 517-818); assay: pull-down
Sequence (Q9UKV8 517-818): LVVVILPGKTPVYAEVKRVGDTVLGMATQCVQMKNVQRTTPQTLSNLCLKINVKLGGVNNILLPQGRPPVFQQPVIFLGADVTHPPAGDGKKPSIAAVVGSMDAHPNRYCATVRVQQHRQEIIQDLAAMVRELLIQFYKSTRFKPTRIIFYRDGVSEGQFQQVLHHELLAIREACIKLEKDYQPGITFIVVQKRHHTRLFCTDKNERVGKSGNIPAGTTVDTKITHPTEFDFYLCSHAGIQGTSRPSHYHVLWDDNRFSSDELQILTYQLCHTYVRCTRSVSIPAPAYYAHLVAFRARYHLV

| Binder | percent pull-down (of input) [%] |
| --- | --- |
| B1 | 18 |
| B2 | 4.2 |
| B3 | ≤ 85 |
| B4 | 0.2 |
